Measurements published in patent publication US20030040042A1, “Recombinant fibroblast growth factors” (published 2003).
Changes are numbered by the printed parent chain.

T1: FGF receptor on bovine adrenal cortex capillary endothelial (ACE) cells (bovine, UniProt P12820)
T1 sequence: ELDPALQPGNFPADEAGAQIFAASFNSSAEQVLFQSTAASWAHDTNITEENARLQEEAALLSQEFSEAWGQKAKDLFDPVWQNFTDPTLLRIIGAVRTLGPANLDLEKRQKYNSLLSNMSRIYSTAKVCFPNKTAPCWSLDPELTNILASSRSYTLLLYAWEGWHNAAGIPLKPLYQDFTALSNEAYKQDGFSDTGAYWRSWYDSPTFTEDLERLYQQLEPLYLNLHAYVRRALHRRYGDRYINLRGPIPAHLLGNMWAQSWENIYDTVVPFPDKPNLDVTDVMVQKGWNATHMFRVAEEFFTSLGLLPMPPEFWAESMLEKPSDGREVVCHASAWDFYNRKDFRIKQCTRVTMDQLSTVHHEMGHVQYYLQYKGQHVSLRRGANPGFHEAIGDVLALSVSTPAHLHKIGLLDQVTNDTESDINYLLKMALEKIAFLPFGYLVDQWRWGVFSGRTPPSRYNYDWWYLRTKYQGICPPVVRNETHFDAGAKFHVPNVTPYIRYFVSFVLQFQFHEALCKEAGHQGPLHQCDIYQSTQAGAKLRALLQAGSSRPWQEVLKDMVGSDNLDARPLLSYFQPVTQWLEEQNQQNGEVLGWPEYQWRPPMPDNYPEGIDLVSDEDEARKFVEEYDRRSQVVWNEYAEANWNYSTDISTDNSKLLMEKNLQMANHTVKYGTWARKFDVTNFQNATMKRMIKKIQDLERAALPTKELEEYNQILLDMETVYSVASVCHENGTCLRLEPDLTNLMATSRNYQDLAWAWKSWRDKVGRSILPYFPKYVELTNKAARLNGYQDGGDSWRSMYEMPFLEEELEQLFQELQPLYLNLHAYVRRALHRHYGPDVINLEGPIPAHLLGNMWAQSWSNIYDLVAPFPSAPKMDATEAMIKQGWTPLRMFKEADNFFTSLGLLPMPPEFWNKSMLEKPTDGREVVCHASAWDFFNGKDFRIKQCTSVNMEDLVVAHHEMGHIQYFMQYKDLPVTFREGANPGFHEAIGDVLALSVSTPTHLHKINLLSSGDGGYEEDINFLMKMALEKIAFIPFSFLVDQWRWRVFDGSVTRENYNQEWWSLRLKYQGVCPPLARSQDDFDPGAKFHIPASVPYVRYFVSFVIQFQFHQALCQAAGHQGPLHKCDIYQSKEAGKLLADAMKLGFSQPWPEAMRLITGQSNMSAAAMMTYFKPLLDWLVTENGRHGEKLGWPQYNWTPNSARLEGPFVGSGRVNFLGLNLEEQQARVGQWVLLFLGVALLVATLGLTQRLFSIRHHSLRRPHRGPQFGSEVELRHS

B1: bFGF-C34/78/96/101S (ligand)
chain: MAAGSITTLPALPEDGGSGAFPPGHFKDPKRLYSKNGGFFLRIHPDGRVDGVREKSDPHIKLQLQAEERGVVSIKGVSANRYLAMKEDGRLLASKSVTDESFFFERLESNNYNTYRSRKYTSWYVALKRTGQYKLGSKTGPGQKAILFLPMSAKS
B2: bFGF-C78/96/101S (ligand)
chain: B1 chain with S34C

How the values were obtained:
[1] = biological target: FGF receptor on Balb/c 3T3 cells; assay: competition with [125I]-bFGF on Balb/c 3T3 cells, 1 ug/ml heparin
[2] = biological target: FGF receptor on Balb/c 3T3 cells; assay: competition with [125I]-bFGF on Balb/c 3T3 cells, no heparin
[3] = biological target: FGF receptor on Balb/c 3T3 cells
[4] = biological target: FGF receptor on bovine adrenal cortex capillary endothelial (ACE) cells (bovine) (UniProt P12820)
[5] = biological target: T1, FGF receptor on bovine adrenal cortex …; assay: cell-based or functional assay

Row | Molecule | FGF-Rc Comp. (ED50 analog / ED50 wild type FGF) [1] | FGF-Rc Comp. (ED50 analog / ED50 wild type FGF) [2] | 3T3 Mito., 1 ug/ml heparin (ED50 wild type / ED50 analog x 100%) (% of wild type) [3] | 3T3 Mito., no heparin (ED50 wild type / ED50 analog x 100%) (% of wild type) [3] | ACE Mito., 1 ug/ml heparin (ED50 wild type / ED50 analog x 100%) (% of wild type) [4] | ACE Mito., no heparin (ED50 wild type / ED50 analog x 100%) (% of wild type) [4] | ACE Mito., 1 ug/ml heparin (ED50 wild type / ED50 analog x 100%) [5] | ACE Mito., no heparin (ED50 wild type / ED50 analog x 100%) [5]
1 | bFGF-K55M (from UniProt P09038-2) (ligand) | 0.4 | 0.4 |  |  |  |  |  | 
2 | bFGF-K119S (from UniProt P09038-2) (ligand) | 0.25 | 0.35 | 250 | 48 |  |  |  | 
3 | bFGF-K128E (from UniProt P09038-2) (ligand) |  |  | 140 | 200 |  |  |  | 
4 | bFGF-K128S (from UniProt P09038-2) (ligand) | 0.25 | 0.3 |  | 210 |  |  |  | 
5 | bFGF-N113S (from UniProt P09038-2) (ligand) | 1 | 1 |  | 160 |  |  |  | 
6 | bFGF-R31S (from UniProt P09038-2) (ligand) | 0.8 | 1 | 100 | 100 |  |  |  | 
7 | bFGF-R48A (from UniProt P09038) (ligand) | 0.3 | 0.32 |  |  | 84.2 | 8.9 |  | 
8 | bFGF-R48L (from UniProt P09038) (ligand) | 2 | 0.16 |  |  |  | 1.7 |  | 
9 | bFGF-R53L (from UniProt P09038-2) (ligand) | 0.25 | 0.22 |  |  |  |  |  | 
10 | bFGF-R90T (from UniProt P09038-2) (ligand) | 0.5 | 0.6 | 216 | 77 |  |  |  | 
11 | bFGF-R106L (from UniProt P09038-2) (ligand) | 0.13 | 0.3 | 200 | 20 |  |  |  | 
12 | bFGF-R116T (from UniProt P09038-2) (ligand) |  | 0.2 | 300 | 50 |  |  |  | 
13 | bFGF-R118L (from UniProt P09038) (ligand) | 0.4 | 0.5 |  |  |  | 1.8 |  | 
14 | bFGF-R129T (from UniProt P09038-2) (ligand) | 0.5 | 1.3 | 190 | 87 |  |  |  | 
15 | bFGF-V52K (from UniProt P09038-2) (ligand) | 0.4 | 0.5 |  |  |  |  |  | 
16 | bFGF-Y112A (from UniProt P09038-2) (ligand) | 100 | 100 | 0.2 | 0.2 |  |  |  | 
17 | human acidic FGF (from UniProt P05230) (ligand) |  | 0.5 | 25 | 5 |  |  |  | 
18 | B1 | 0.5 | 1 |  |  |  |  | 119 % of wild type | 7 % of wild type
19 | B2 |  |  |  |  |  |  | 125 % of wild type | 23 % of wild type
